From publication PMC12065904 come the findings set out here.

The target of this test is rabbit skeletal muscle actin, polymerized in vitro (F-actin) (rabbit) (UniProt P68135). The experiment in a line: co-sedimentation; F-actin cosedimentation: CaVβ proteins incubated with polymerized actin in polymerization buffer (0.2 mM CaCl2, 50 mM KCl, 2 mM MgCl2, 1 mM ATP, 5 mM HEPES pH 8.0), 25 µM phalloidin; 150,000 × g, 20 min, 4 °C; densitometry of pellet over total; also at 30–150 mM NaCl and after 30 or 90 min of incubation.

In the case of “CaVβ4 R482X (truncated, naturally occurring variant of human CaVβ4 linked to juvenile myoclonic epilepsy) (from UniProt O00305-1 1-431) (domain or fragment)”, the percent cosedimented with actin is > 80%.
